Data: the supplement of paper PMC10567573

B1: JUNB (parent)
chain: FVKALDDLHKMNHVTPPNVSLGAT

Variants of: B1
Assay: protein stability index of a GFP-peptide fusion (GPS, HEK-293T) (PSI 1-6); higher = more stable
Details: c terminus: a fixed tail appended
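Note: lentivirally expressed fusions sorted by FACS into six bins by GFP to DsRed ratio, PSI derived from sequencing read proportions per bin multiplied by bin number.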

Variant	protein stability index
FWKALDDLHKMNHVTPPNVSLGAT [V2W]	2.47
FTKALDDLHKMNHVTPPNVSLGAT [V2T]	3.33
FYKALDDLHKMNHVTPPNVSLGAT [V2Y]	2.51
FRKALDDLHKMNHVTPPNVSLGAT [V2R]	3.54
FSKALDDLHKMNHVTPPNVSLGAT [V2S]	4.07
FVKALDDSHKMNHVTPPNVSLGAT [L8S]	2.39
FVKALDDAHKMNHVTPPNVSLGAT [L8A]	1.51
FVKALDDFHKMNHVTPPNVSLGAT [L8F]	2.59
FVKALDDIHKMNHVTPPNVSLGAT [L8I]	2.64
FVKALDDHHKMNHVTPPNVSLGAT [L8H]	2.26
FVKALDDVHKMNHVTPPNVSLGAT [L8V]	1.74
FVKALDDEHKMNHVTPPNVSLGAT [L8E]	2.31
FVKALDDRHKMNHVTPPNVSLGAT [L8R]	1.89
FVKALDDYHKMNHVTPPNVSLGAT [L8Y]	1.52
FVKALDDPHKMNHVTPPNVSLGAT [L8P]	2.31
FVKALDDMHKMNHVTPPNVSLGAT [L8M]	1.62
FVKALDDNHKMNHVTPPNVSLGAT [L8N]	1.93
FVKALDDQHKMNHVTPPNVSLGAT [L8Q]	1.68
FVKALDDGHKMNHVTPPNVSLGAT [L8G]	2.26
FVKALDDCHKMNHVTPPNVSLGAT [L8C]	1.77
FVKALDDKHKMNHVTPPNVSLGAT [L8K]	2.3
FVKALDDDHKMNHVTPPNVSLGAT [L8D]	1.86
FVKALDDTHKMNHVTPPNVSLGAT [L8T]	2.46
FVKALDDLHKMQHVTPPNVSLGAT [N12Q]	1.58

Variant	protein stability index
FVKALDDLHKMIHVTPPNVSLGAT [N12I]	1.67
FVKALDDLHKMEHVTPPNVSLGAT [N12E]	2.01
FVKALDDLHKMMHVTPPNVSLGAT [N12M]	1.65
FVKALDDLHKMCHVTPPNVSLGAT [N12C]	2.34
FVKALDDLHKMKHVTPPNVSLGAT [N12K]	1.55
FVKALDDLHKMAHVTPPNVSLGAT [N12A]	2.14
FVKALDDLHKMRHVTPPNVSLGAT [N12R]	1.56
FVKALDDLHKMFHVTPPNVSLGAT [N12F]	1.74
FVKALDDLHKMHHVTPPNVSLGAT [N12H]	2.57
FVKALDDLHKMPHVTPPNVSLGAT [N12P]	2.08
FVKALDDLHKMSHVTPPNVSLGAT [N12S]	2.12
FVKALDDLHKMDHVTPPNVSLGAT [N12D]	1.61
FVKALDDLHKMGHVTPPNVSLGAT [N12G]	2.49
FVKALDDLHKMLHVTPPNVSLGAT [N12L]	3.23
FVKALGDLHKMNHVTPPNVSLGAT [D6G]	2.07
FVKALSDLHKMNHVTPPNVSLGAT [D6S]	1.46
FVKALHDLHKMNHVTPPNVSLGAT [D6H]	1.57
FVKALKDLHKMNHVTPPNVSLGAT [D6K]	2.39
FVKALADLHKMNHVTPPNVSLGAT [D6A]	2
FVKALEDLHKMNHVTPPNVSLGAT [D6E]	1.97
FVKALWDLHKMNHVTPPNVSLGAT [D6W]	3.45
FVKALQDLHKMNHVTPPNVSLGAT [D6Q]	1.34
FVKALTDLHKMNHVTPPNVSLGAT [D6T]	1.88
FVKALCDLHKMNHVTPPNVSLGAT [D6C]	4.16

Variant	protein stability index
FVKALNDLHKMNHVTPPNVSLGAT [D6N]	2.83
FVKALYDLHKMNHVTPPNVSLGAT [D6Y]	4.17
FVKALFDLHKMNHVTPPNVSLGAT [D6F]	3.31
FVKALIDLHKMNHVTPPNVSLGAT [D6I]	2.58
FVKALRDLHKMNHVTPPNVSLGAT [D6R]	1.59
FVKALMDLHKMNHVTPPNVSLGAT [D6M]	2.54
FVKALVDLHKMNHVTPPNVSLGAT [D6V]	2.59
FVKALPDLHKMNHVTPPNVSLGAT [D6P]	2.08
FVKALDDLHVMNHVTPPNVSLGAT [K10V]	1.48
FVKALDDLHGMNHVTPPNVSLGAT [K10G]	1.5
FVKALDDLHIMNHVTPPNVSLGAT [K10I]	2.35
FVKALDDLHTMNHVTPPNVSLGAT [K10T]	2.21
FVKALDDLHSMNHVTPPNVSLGAT [K10S]	2.11
FVKALDDLHQMNHVTPPNVSLGAT [K10Q]	1.95
FVKALDDLHCMNHVTPPNVSLGAT [K10C]	1.64
FVKALDDLHRMNHVTPPNVSLGAT [K10R]	2.77
FVKALDDLHWMNHVTPPNVSLGAT [K10W]	4.58
FVKALDDLHAMNHVTPPNVSLGAT [K10A]	2.79
FVKALDDLHLMNHVTPPNVSLGAT [K10L]	1.72
FVKALDDLHPMNHVTPPNVSLGAT [K10P]	2.61
FVKALDDLHFMNHVTPPNVSLGAT [K10F]	1.6
FVKALDDLHEMNHVTPPNVSLGAT [K10E]	2.98
FVKALDDLHYMNHVTPPNVSLGAT [K10Y]	2.63
FVKALDDLHMMNHVTPPNVSLGAT [K10M]	1.72

Variant	protein stability index
FVKALDDLHNMNHVTPPNVSLGAT [K10N]	2.07
FVKALDDLHDMNHVTPPNVSLGAT [K10D]	2.22
FVKALDDLHHMNHVTPPNVSLGAT [K10H]	2.13
FVKALDDLEKMNHVTPPNVSLGAT [H9E]	2.08
FVKALDDLKKMNHVTPPNVSLGAT [H9K]	1.9
FVKALDDLPKMNHVTPPNVSLGAT [H9P]	1.69
FVKALDDLGKMNHVTPPNVSLGAT [H9G]	1.97
FVKALDDLAKMNHVTPPNVSLGAT [H9A]	1.86
FVKALDDLMKMNHVTPPNVSLGAT [H9M]	2.64
FVKALDDLSKMNHVTPPNVSLGAT [H9S]	2.57
FVKALDDLTKMNHVTPPNVSLGAT [H9T]	2.15
FVKALDDLYKMNHVTPPNVSLGAT [H9Y]	1.54
FVKALDDLLKMNHVTPPNVSLGAT [H9L]	1.44
FVKALDDLDKMNHVTPPNVSLGAT [H9D]	2.05
FVKALDDLCKMNHVTPPNVSLGAT [H9C]	2.04
FVKALDDLIKMNHVTPPNVSLGAT [H9I]	1.29
FVKALDDLFKMNHVTPPNVSLGAT [H9F]	3.03
FVKALDDLVKMNHVTPPNVSLGAT [H9V]	1.79
FVKALDDLRKMNHVTPPNVSLGAT [H9R]	1.66
FVKALDDLQKMNHVTPPNVSLGAT [H9Q]	1.34
FVKALDDLWKMNHVTPPNVSLGAT [H9W]	4.16
FVKALDDLNKMNHVTPPNVSLGAT [H9N]	1.72
